Laboratory results from paper PMC6624373.

Molecular target: lamin A R7/8E double mutant (human) (UniProt P02545)
Test: rotary metal shadowing EM; in vitro assembly assay: after dialysis into 25 mM MES, 150 mM NaCl, 1 mM DTT, 1 mM EGTA pH 6.5, 30% glycerol; dimers scored as singular or incorporated into head-to-tail oligomers

stoichiometry N: 2
Substance: lamin A R7/8E double mutant (from UniProt P02545 1-646) (natural protein)
